Experimental data as given in the supplement of paper PMC10567573.

B1: NP_006221.1 (parent)
chain: CQPISFSGFGAEDDDLGGLGLGP
B2: ZBTB22 (parent)
chain: RPFDCPVCNKKFKMKHHLTEHMKT

Variants of: B1
Test: protein stability index of a GFP-peptide fusion (GPS, HEK-293T) (PSI 1-6); higher = more stable
Settings: c terminus: native

Protein stability index of substitutions, site by site:
L19: S 2.91, E 2.49, W 2.78, C 2.52, M 2.29, V 2.11
Q2: D 2.51, N 2.31, F 1.99, H 2.26, P 2.19, R 2.17, S 2.64, C 2.14, T 2.16
L21: N 4.89, G 4.98, W 4.11, Y 4.14, R 2.74, F 4
A11: C 2.08, Q 2.32, G 2.36, F 1.95, M 2.04
S5: A 2.77, L 2.25, G 2.36, V 2.54, N 2.4, F 2.29, K 2.39, Y 2.25, C 2.16
P23: Q 4.25, G 2.25, Y 2.25, S 4.5, N 4.72, A 2.17
D15: W 2.44, S 2.38, E 2.15, I 2.4, H 2.08, T 2.52
F9: V 2.25, R 2.04
P3: K 2.05, Q 2.42, L 2.1, Y 2.01, G 2.3, A 2.19, N 2.2, T 2.09, R 2.06
G20: A 2.29, W 3.19, S 2.69, L 3.54, F 3.81, H 2.93, D 2.58
F6: R 3.86, V 3.43, Q 4.21, L 3.5, M 3.53
D13: E 2.22, Y 2.02, S 2.41, I 2.5, N 2.2, F 2.54, T 2.28
C1: D 2.57, Q 2.37, G 2.41, E 2.53, R 2.31
S7: G 2.87, Q 2.48, W 2.42, M 2.47, A 1.89
G10: D 2.51, T 1.91, E 2.08, W 1.9, H 1.99, Y 1.94
E12: V 2.3, N 2.32, D 2.22, H 2.48, C 2.43, R 2.31, A 2.32
D14: N 2.33, V 2.12, L 2.44, F 2.51
G22: H 2.8, W 2.46, V 2.11, N 3.35, E 2.13
G17: V 1.99, Q 2.12, L 2.2, W 2.46, P 2.05
I4: D 2.48, A 2.17, E 2.41, K 2.05
G18: R 2.31, W 2.57, D 2.19, Y 2.18, H 1.99, F 2.24
L16: R 2.18, A 2.59
G8: N 2.24, Q 1.87, Y 2.31, T 2.34, H 1.98, K 2.48

Variants of: B2
Test: as above
Settings: c terminus: a fixed tail appended

Protein stability index of substitutions, site by site:
R1: A 3, C 3.18, D 3.31, E 3.67, F 2.38, G 3.08, H 2.88, I 2.87, K 2.74, L 2.35, M 2.71, N 2.64, P 3.17, Q 2.8, S 2.71, T 2.96, V 2.74, W 2.09, Y 2.38
P2: A 2.83, C 2.19, D 3.24, E 3.26, F 2.72, G 2.46, H 2.97, I 2.37, K 2.83, L 2.3, M 2.46, N 2.34, Q 2.76, R 2.12, S 3.39, T 3.84, V 2.12, W 2.52, Y 2.6
F3: A 2.58, C 2.98, D 2.93, E 2.6, G 2.49, H 2.56, I 2.55, K 2.61, L 2.35, M 2.45, N 3.06, P 2.74, Q 2.86, R 1.98, S 2.58, T 3.09, V 2.85, W 2.57, Y 3.1
D4: A 3.31, C 3.54, E 3.6, F 2.95, G 2.73, H 2.87, I 3.62, K 3.28, L 2.92, M 3.5, N 2.88, P 1.71, Q 3.46, R 3.1, S 3.5, T 3.43, V 3.54, W 2.6, Y 3.25
C5: A 2.51, D 3.21, E 3.76, F 2.66, G 3.3, H 2.78, I 2.64, K 3.19, L 2.6, M 2.9, N 3, P 3.23, Q 2.94, R 3.21, S 3.15, T 3.71, V 2.61, W 2.41, Y 2.93
P6: A 2.65, C 2.21, D 3.46, E 2.85, F 2.15, G 2.1, H 2.27, I 2.03, K 2.9, L 2.68, M 2.03, N 2.68, Q 2.32, R 2.12, S 2.42, T 2.45, V 2.37, W 1.86, Y 2.25
V7: A 2.21, C 3.91, D 2.82, E 3.58, F 3.21, G 3.06, H 3.27, I 3.09, K 2.96, L 2.53, M 2.25, N 2.48, P 2.7, Q 2.45, R 2.39, S 2.77, T 2.47, W 2.85, Y 3
C8: A 2.99, D 3.25, E 2.97, F 2.26, G 2.8, H 3, I 2.72, K 3.34, L 2.92, M 2.93, N 2.98, P 2.62, Q 2.81, R 3.08, S 3.03, T 3.48, V 3.5, W 2.42, Y 2.9
N9: A 2.95, C 2.43, D 3.13, E 3.36, F 2.27, G 3.59, H 3.23, I 1.92, K 3.23, L 2.83, M 2.54, P 2.43, Q 2.33, R 2.03, S 2.43, T 2.27, V 2.06, W 1.49, Y 2.07
K10: A 2.52, C 2.49, D 2.43, E 3.01, F 2.34, G 2.25, H 2.47, I 2.03, L 2.19, M 2.46, N 2.45, P 2.31, Q 2.21, R 2.37, S 2.63, T 2.96, V 2.11, W 1.7, Y 2.29
K11: A 2.23, C 2.44, D 2.55, E 2.89, F 1.8, G 2.43, H 2.85, I 2.36, L 2.25, M 1.84, N 2.79, P 2.34
